Source: the nanobody polyreactivity screen of Harvey et al. (2022)

experiment: yeast display, Sf9 membrane polyspecificity reagent, FACS + sequencing; frameworks hold sequencing errors
Procedure, shortened: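 After 36–48 hours of galactose induction, yeast (Saccharomyces cerevisiae BJ5465) displaying a synthetic nanobody library were stained at 4 °C for 1 hour with 10% biotinylated, detergent-solubilized Sf9 membrane reagent. Streptavidin microbeads enriched the stained cells before FACS sorting into low and high (top ~1%) gates on anti-HA and streptavidin fluorescence. Each clone's polyreactivity label reflects its gate of origin.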

Row | Sequence | polyreactivity (PSR sort gate)
1 | QVQLQESGGGLVQACGSQRLSCAASGSISEGQDMGWYRRAPGKEREFVAGIAPGATTYYADSVKGRFTISRDNAKNTVYLQMNSLKPEDTAVYYCAARSVTETDHDYWGQVTQVTVSS | low polyreactivity
2 | QVQLVESDGGLVQAGGSLRLSCAASGSTFTWNAMGWYRQAPGKERELVAAISGDGGSTYYADSVKGRFTISRDNAKNTVYLQMNSLKPEDTAVYYCAASSAHIYSYRYNYWGQGTQVTVSS | low polyreactivity
3 | QYQLVESGGGLVQAGGSLRLSCAASGRIFLVYVMGWYRQAPGKERELVADITFSGGSTYYADSVKGRFTISRDNEKNNVYLQMNSLKPEYTAVYYCAAATWSFLDYWGQGTQVTVSS | high polyreactivity
4 | QVQLVESGGGLVQAGGSLRLSCAASGLTFTHYALGWYRQAPGKERELVAAIAWRGGSTYYADSVKGRFTISRDNAKNTVYLQMNSLKPEDTAVYYCAVARSYRGEMDYWGQGTQVTVSS | low polyreactivity
5 | QVQLVESGGGLVQAGGSLRLSCAASGLIFYFNGMGLYRQAPGKERELVASISASGDRTYYADSVKGRFTISRDNAKNTVYLQMNSLKQEDTAVYYCATDANTYTKYDYWGQGTQVSVSS | low polyreactivity
6 | QVQLVESGGGLVQAGGSLRLSCAASGRIFGNTMGWYRQAPGKERELVAAITRSGVSTYYADSVKGRFTISRDNAKNTVYLQMNSLKPEDTAVYYCAKVYSRRSVLSRYGSWGQGTQVTVSS | high polyreactivity
7 | QVQLVESAGGLVQAGGSLRLSCAASGFTFTYYVMGWYRQAPGKERELVAAISSGGSTYYADSVKGRFTISRDNAKNTVYLQMNSLKPEDTAVYYCAKGSGYYYRYGYWGQGTQVTVSS | high polyreactivity
8 | QVQLVESGGGLVQAGGSLRLSCAASGFTFGVYAKGWYRQEPGKEREMVAAISSRRGSTYYADSVKGRFTISRDNAKNTVYLQMNSLKPEDTAVYYCAKRLGNTVGKEDYWGQGTQVTVTS | low polyreactivity
9 | QVQLVESGGGLVQAGGSLRLSCAASGRIFWRYAMGWYRQAPGKERELVAGITYSGGRTYYADSVKGRFTISRDNAKNTVYLQMNSLTPEDTAVYYCAARGYFDALFDYWGQGTQVTVSS | low polyreactivity
10 | QVQLVESGGGLVQAGGSLRLSCAASGSIFGYYAMGWYRQAPGKERELVAAISSGGNTNYADSVNGRFTISRDNAKITVYLQMTSLKPEDTAVYDCATRARYKRIRYDYWGQGTKVTVSS | high polyreactivity
11 | QVQLVESGGGLVQAGGSLRLSCADSGFIFLGNARGWYRQAAGKERELVAASSSGGSTYADSVKGRFTISRDNAKNTVYLQMNSLKPEDTAVYYCALDPPFPAQNYHEDDYWGQGTQVTVAS | low polyreactivity
12 | QVQLVESGGGLVQAGGSLRLSCAASGRIFWYYAMGWYRQAPGKERELVARITSGGRTYYADSVKGRFTISRDNAKNTVYLQMNSLKPEDTAVYYCARRGRKAYGYWGQGTQVTVSS | high polyreactivity
13 | QVQLVESGGGLVQAGGSLRLSCAASGSTFEPYAMGWYRQAPGKERELVAAISSGGSTSYADSVKGRFTISRDNAKNTVYLQMNSLKPEDTAVYYCAKRWRSYRHEDYGYWGQGTQVTVSS | low polyreactivity
14 | QVQLVESGGGLVQAGGSLRLSCAASGYIFRGYVMGWYRQAPGKERELVAAITSSGGSTYYADSVKGRFTISRDNAKNTVYLQMISLKPEDTAVYYCAARGYSPHYYWGQGTQVTVSS | high polyreactivity
15 | QVQLVQSVVGLVQAGRRLRLSSAASGRIFFYNAMGWYRHAPGKERELVAGISRSGTSTYYADSVKGRFTISRDNAKNTVYLHMNSLKPEDTAVYYCAAGTFYYWLSYDYWGQGTQVTVSS | low polyreactivity
16 | QVQLVESGGGLVQAGGSLRLSCAASGSIFDSYAMGWYRQAPGKDRELVAAISGNSDSTYYADSVKGRFTISRDNATNTVYSQMNSLKAEDTAVYNCNARGRLPYLEFYYWGQGTQVTVSS | low polyreactivity
17 | QVQHVESAGGLVQAGGSLRLSCAASGITFKVYAMGWYRQAPGKERELVATISRSDAGTSYADSVKGRFTISRDNAKNTVYLQMNSLKPEDTAVYYCAATYVSKKTHTKYDYWGQGTQVTVSS | high polyreactivity
18 | QVQLQESGGGLVQADGSLRLSCAASGSIFGYYYMGWYRQAPGKDRDLVATINICGITNYADSVNGRFTISRDNAKYTVYLQMNSLKPDDTAVYYCAADEFDQRDLGYWGQGTQVSVSS | low polyreactivity
19 | QVQLVESGGGLVQAGGSLRLSCAASGIIFSLKTMGGYRQAPGKERELVAAISSSGGSTYYADSVKGRFTISRDNAKNCVYVQMNSLKPEDTAVYYCARRYAPNTSLTFYYWGQGTQVTVSS | low polyreactivity
20 | QVQLVESGGGLVQAGGSLRLSCAASGSTFDTNAMGWYRQAPGKELVAAISSAGSTYYADSVKGRFTISRDNAKNTVYLQMNSLKPVATAVYYCAAGNAESPYESLEDDYWGQGTQVTVSS | low polyreactivity
21 | QVQLVESRGGLVQAGGSLRLSCAASGSTSYIYVMGWYRQAPGKERELVATISKNGGDTYADSVKGRFTISRDNAKNTVYLQMNSLKPEDTAVYYCYARAYLYNRRISSRYNYWGQGTQVTVSS | high polyreactivity
22 | QVQLVESGGGLVQAGRSLRLSCAASGGLFQKYPMGWYRHAPGKERELVAAISGSGGRTYYADSVKGRFTISRDNAKNTVYLQMNTLKPEDTEVYYCAATLNRYGYDYWGQGTQVTVST | high polyreactivity

Row | Sequence | polyreactivity (PSR sort gate)
23 | QVQLQESGGGLVQAGGSLRLSCAASGSITHYIFMGWYRQAPGKEREFVAGIGYGGTTNYADSVKGRFTISRDNAINTVYLQMNSLKPEDTAMYYCAAREATEFYLYYWGQGTQVTVSS | low polyreactivity
24 | QVQLVESGGGLVQAGGSLRLSCAASGRTFRPYDMGWYRQAPGKERELVATITTNGGSTYYADSVKGRFTISRDNAKNTVYLQMNSLKPEDTAVYYCATDNWWQTYHYQGGYYWGQGTQVTVSS | low polyreactivity
25 | QVQLVESGGGLVQAGGSLRLTCAASGFIFRAYAKGWYRQEPGKERELVAAISRSVSRTYYADSVKGRFTISRDNAKNTVYLQMNSLKPEDTAVYYCAADGQLHMDYWGQGTQVTVSS | high polyreactivity
26 | QVQLVESAGGLVQAGGSLRLSCAASGITLSYNAMGWYRQAPGKERELVAAISARGGSTYYADSVKGRFTISRDNAKNTVYLQMNSLKPEVTAVYYCAAPRGWRQNKYDYWGQGTEVTVSS | high polyreactivity
27 | QVQLVESGGGLVQAGGSLRLSCAASGATFGYYAMGWYRQAPGKEMEFVARITQRGSRTYYADSVKGRFTISRDNAKNTVYLQMNSLKPEDTAVYYCDAEVWWTHNGRGAYGYDYWGQGTHVTVSS | high polyreactivity
28 | QVQLVESCGGLVQAGGSLRLSCADSGRTIYVNAMGCYRQAPGKERELVARITSGGSTYYADSVKGRFTISRDNAKNTVYLQMNSLTPEDTAVLYCAKKYIGYQDWIHSTRRYDYWGQGTQVTVSS | low polyreactivity
29 | QVQLVESGGGLVQAGGSLRLSCAASGRIFSRYAMGLYRQAPGKERELVAAITWRGGSTYYADSVKGRFTISRDNAKNTVYLEMNSLKPEDSAVYYCAKYGSGGRQLRSDSWVQGTQVTVSS | high polyreactivity
30 | QVQLVESGGGLVQAGGSLRLSCAASGSIFGDNAMGWYRQAPGKERELVAAISGSTGSTNYADSVKGRFTISRDNAKNTVYLQMNSLKPEDTAVYYCNVGGLEYFVFKGVSVPDDYWGQGTQVTVSS | low polyreactivity
31 | QVQHVESGGGLVQAGGSLRLSCAASGYTYDPNAMGWYRQAPGKERELVAAISRIGGSTYYADSVKGRFRISRDNAKNTVYLQMNSLKREDTAVYYCAQEYYDGYFPTFDYDYWGQGTQVTVSS | low polyreactivity
32 | PVQLVESGGGLVQAGGSLRLSCACSGRIFIYNSMGWYRQATGKEREFVAAISSSGGSTYYADSVKGRFTISRDNAKNTVYLHLNSLKPEDTAVYYCAAGGWPYSGGWFFQPNYYYWGQGTQVTVSS | low polyreactivity
33 | QVQLVVSGGGLVQAGGSLRLSCAASGRTFPRYAMGWYRQAPGKERELVASISRRGGSTYYADSVKGRFTISRDNAKNTVYLQMNSLKPEDTAVYYCNAQGYPYKQSTGDFWGQGTQVTVSS | high polyreactivity
34 | QVQLVESGGGLVQAGGSLRLSCDASGSIFILYAMGWYRQAPGKERELVAGITLSTGTTSYADSVKGRFTISRDNAKNTVYLQMNSLKPVDTAVYYCNAVPSQHDEFDYWGQGTQVTVSS | low polyreactivity
35 | QVQLVESGGGLVQAGGSLRLSCAASASIFNYYAMGRYRQAPGKERELVAAITSGGSTYYADSVKGRFSISRDNAKNTVYLQMNSVKPEDTAVYYCNKAFPYIYDYWGQGTQVTVSS | low polyreactivity
36 | QVQIGESGGGLVQAGGSLRLSCAACGFIFYRYAMGWYRQAPGKERELVAAISWSGGTTYYADSVKGRFTISRDNAKNTDYLQMNSLKPEDTAVYYCNARYPRSSPFGYWGQGTQVTVSS | high polyreactivity
37 | QVQLVESGGGLVQAGGSLRLSCAASGLTFKDNAMGWYRQAPGKERELVAAISKGGGSTFYADSVKGRFTISRDNAKNTVYLQMNSLKPEDTAVYYCNADVGYRGGEEDYWGQGTQVTVSS | low polyreactivity
38 | QVHLQESGVVLMQARGNLRMSCAASGYISTQYHMDWYRQAPGKERELVARIDYGAITNYADSVKGRFTIRRDNAKNTVYLQMTSLKPEDTAVYYCAVYSGDDYYHDYWGHGTQVTVSS | low polyreactivity
39 | QVQRVESGGGLVQAGGSRRLSCAASGNIFRRYTMGWYRQAPGKERELVAAISRRGGSTHYADSVKGRFTISRDNAKNTVYLQMNSLKPEDTAVYYCNAYLVYSYSPSHYYGFGYWGQGTQVTVSS | high polyreactivity
40 | QVQLVESGGGLVQAGGSLRLSCAASGSTFATYAMGWYRQAPGKERELVAVISRSGGSTYYADSVKGRFTISRDNAKNTVYLQMNSLKPEDTAVYYCNVPITPGRVKYDYWGQGTQVTVSS | high polyreactivity
41 | QVQLVESGGGLVQAGGSLRLSCAASGSTISRNAMGWSRQAPGKERELVAAISWRGGRTYYADSVKGRFTISRDNAKNTVYLQMNSLKPEDTAVYYCAAEHKYRYDYWGQGTQVTVSS | low polyreactivity
42 | QVQLVESGGGLVQAGGSLRLSCAASGFTFDWNAMGWYRQAPGKERELVAAISNSDGSTYYADSVKGRFTISRDNAKNTVYLQMNSLKPEDTAVYYCNKLYRGGWYAYWGQGTQVTVSS | low polyreactivity
43 | QVQLVETGGGLVQAGGSLRLSCAASGGIFGRNAMGWYRQAPGKERELVASISKSGGSTYYADSVKGRFTISRDNAKNTVYLQMNSLKPEDTAVYYCAARYSYFNWDNYYWGQGTQVTVSS | high polyreactivity
